In patent publication US20030092616A1, “STAT6 activation gene” (priority 2001, published 2003):

B1: 397 (nucleic acid, listed as Homo sapiens)
chain: ACAGATGAAACTTTTTAGGTCTCAAAGAAATCTTTACATTTCTGGATTTTCCCTATTTTTTTGGCTAGTTTTGAGACGTCTGGTTACGCTTATTACTCAACTGGCAAAAGAACTGTCAAACAAAGGTGTACTTAAAACTCAAGCAGAAAATACTAACAAGGCTGCCAAAAAATTTATGGAAGAAAACGAAAAACTAAAAAGGATTTTGAAAAGCCATGGTAAAGATGAAGAATGTGTTTTGGAAGCAGAAAATAAAAAACTAGTAGAAGACCAGGAGAAACTGAAAACTGAATTAAGGAAGACTTCAGATGCCCTTTCTAAGGCACAAAATGATGTGATGGAAATGAAGATGCAGTCAGAGAGACTTTCGAAAGAATATGATCAACTCCTGAAAGAACACTCTGAACTTCAGGATCGTTTAGAAAGAGGCAACAAGAAAAGACTGTGAACTTTATAAAAGACACTTGCAATATACTGTGTCAAAATGATAATTTTGTTATGTTAGCCTCTAGAAAATTTAAGTTCAGAAAAATGCACTATGACCGGTTCGTAATTTTTTTAATGCCACACATAGGTTGTATTGTAATGGCATTATCAAAATATTTGATGATGTTTCAGATATATTGCAAAGTCTGTATTCCAGCTCTTAAGAAAAATATAAGCATGTTAAATACCATATTTACATATTGATAATGTCATTGGTATATGGTGGCTGTTTACCAATAAAAGGAAAAAATTCATT
modifications: CDS (5)..(445)
B2: 413 (nucleic acid, listed as Homo sapiens)
chain: GAGGAGGCCGCGCCAGTGACAGCGATGGCGGCGGAGTCGGCGCTCCAAGTTGTGGAGAAGCTGCAGGCGCGCCTGGCCGCGAACCCGGACCCTAAGAAGCTATTGAAATATTTGAAGAAACTCTCCACCCTGCCTATTACAGTAGACATTCTTGCGGAGACTGGGGTTGGGAAAACAGTAAATAGCTTGCGAAAACACGAGCATGTTGGAAGCTTTGCCAGGGACCTAGTGGCCCAGTGGAAGAAGCTGGTTCCTGTGGAACGAAATGCTGAGCCTGATGAACAGGACTTTGAGAAGAGCAATTCCCGAAAGCGCCCTCGGGATGCCCTGCAGAAGGAGGAGGAGATGGAGGGGGACTACCAAGAAACCTGGAAAGCCACGGGGAGCCGATCCTATAGCCCTGACCACAGGCAGAAGAAACATAGGAAACTCTCGGAGCTCGAGAGACCTCACAAAGTGTCTCACGGTCATGAGAGGAGAGATGAGAGAAAGAGGTGTCACAGAATGTCACCAACTTACTCTTCAGACCCTGAGTCTTCTGATTATGGCCATGTTCAATCCCCTCCATCTTGTACCAGTCCTCATCAGATGTACGTCGACCACTACAGATCCCTGGAGGAGGACCAGGAGCCCATTGTTTCACACCAGAAGCCTGGGAAAGGCCACAGCAATGCCTTTCAGGACAGACTCGGGGCCAGCCAAGAACGACACCTGGGTGAACCCCATGGGAAAGGGGTTGTGAGTCAAAACAAGGAGCACAAATCTTCCCACAAGGACAAACGCCCCGTGGATGCCAAGAGTGATGAGAAGGCCTCTGTGGTGAGCAGAGAGAAATCACACAAGGCCCTCTCCAAAGAGGAGCCGGCCTATGATGGCCCAAGCACCAGCAGTGCCCACTTGGCACCAGTGGTCAGCAGCACTGTTTCCTATGATCCTAGGAAACCCACTGTGAAGAAAATTGCCCCAATGATGGCCAAGACAATTAAAGCTTTCAAGAACAGATTCTCCCGACGATAAACTGAGGACTTGCCTTGGAAATGGAATCTGGGGAGGCAGGAATACAAGGACAGTGGGGGTTGGGGAATGGAATTCTACAGGAGACTGGAGTCTTGCTTTGTGGATCCTTTTGGTCTCCGAGTCCTGCAGTCTGCAGGTGCTGCCCCTGGGAACCTGCGTGCCACAGCCCCGCCTCCCTGCCTGGAGCACACTTTAGAATTCTGAAGATGTGAAGCCTCTGTCTCACTGAGGATTTTAAAGGTCAATTATACTTTTGTTGTTCATTAGCATCTTTGTAAACTATAAGACGTAGTTTTAATTAATAAATATTGCCCCCAGATTGTATTT
modifications: CDS (25)..(1014)
B3: 417 (nucleic acid, listed as Homo sapiens)
chain: ATTCCTCCCAGGGACCCCAGACCTCTGTCTCTCTCGGCAGGCCTTGGCTCCTTGAACTTTTGGCCGCCATGTACTTCCCGAAGGTCCTCTCTGATGACATGAAGAAGCTGAAGGCCCGAATGCACCAGGCCATAGAAAGATTTTATGATAAAATGCAAAATGCAGAATCAGGACGTGGACAGGTGATGTCGAGCCTGGCAGAGCTGGAGGACGACTTCAAAGAGGGCTACCTGGAGACAGTGGCGGCTTATTATGAGGAGCAGCACCCAGAGCTCACTCCTCTACTTGAAAAAGAAAGAGATGGATTACGGTGCCGAGGCAACAGATCCCCTGTCCCGGATGTTGAGGATCCCGCAACCGAGGAGCCTGGGGAGAGCTTTTGTGACAAGGTCATGAGATGGTTCCAGGCCATGCTGCAGCGGCTGCAGACCTGGTGGCACGGGGTTCTGGCCTGGGTGAAGGAGAAGGTGGTGGCCCTGGTCCATGCAGTGCAGGCCCTCTGGAAACAGTTCCAGAGTTTCTGCTGCTCTCTGTCAGAGCTCTTCATGTCCTCTTTCCAGTCCTACGGAGCCCCACGGGGGGACAAGGAGGAGCTGACACCCCAGAAGTGCTCTGAACCCCAATCCTCAAAATGAAGATACTGACACCACCTTTGCCCTCCCCGTCACCGCGCACCCACCCTGACCCCTCCCTCAGCTGTCCTGTGCCCCGCCCTCTCCCGCACACTCAGTCCCCCTGCCTGGCGTTCCTGCCGCAGCTCTGACCTGGTGCTGTCGCCCTGGCATCTTAATAAAACCTGCTTATACTTCCCTGGC
modifications: CDS (69)..(632)
B4: 423 (nucleic acid, listed as Homo sapiens)
chain: AAAAAAAAAGCTGGGAGCCGCCGCCCCCGCAGCTGCTGCCGCCGCCGCCAGGGCCCGGACTCGGACGCGTGGTAGCCCCAGGATGGGTGAGTTCAACGAGAAGAAGACAACATGTGGCACCGTTTGCCTCAAGTACCTGCTGTTTACCTACAATTGCTGCTTCTGGCTGGCTGGCCTGGCTGTCATGGCAGTGGGCATCTGGACGCTGGCCCTCAAGAGTGACTACATCAGCCTGCTGGCCTCAGGCACCTACCTGGCCACAGCCTACATCCTGGTGGTGGCGGGCACTGTCGTCATGGTGACTGGGGTCTTGGGCTGCTGCGCCACCTTCAAGGAGCGTCGGAACCTGCTGCGCCTGTACTTCATCCTGCTCCTCATCATCTTTCTGCTGGAGATCATCGCTGGTATCCTCGCCTACGCCTACTACCAGCAGCTGAACACGGAGCTCAAGGAGAACCTGAAGGACACCATGACCAAGCGCTACCACCAGCCGGGCCATGAGGCTGTGACCAGCGCTGTGGCAGCAACAACTCACAGGACTGGCGAGACAGTGAGTGGATCCGCTCACAGGAGGCCGGTGGCCGTGTGGTCCCAGACAGCTGCTGCAAGACGGTGGTGGCTCTTTGTGGGCAGCGAGACCATGCCTCCAACATCTACAAGGTGGAGGGCGGCTGCATCACCAAGTTGGAGACCTTCATCCAGGAGCACCTGAGGGTCATTGGGGCTGTGGGGATCGGCATTGCCTGTGTGCAGGTCTTTGGCATGATCTTCACGTGCTGCCTGTACAGGAGTCTCAAGCTGGAGCACTACTGACCCTGCCTTGGGCCTTGCTGCTGCTGCACCCAACTACTGAGCTGAGACCACTGAGTACCAGGGGCTGGGCTCCCTGATGACACCCACCCTGTGCCATCACCATAACCTCTGGGGACCCCAACCTCAGAGGCAGCTTCAAGTGCCTTTTGCTGCGCACCAATGCCCAGCAGGGGAGGTGAGGGGGGCTGGCGGGGCGAAGTTTGGGGGGTGTTTTGTGGGGCTCCCCAGACACACTCTCTGCCTGGTGGTCAGATGCAGGTTGGAAGGGGCCTTGCTGAGTGGCGCAAGGCCGAGCGTTCCCAGCAGGGGGAGAAACCCTTCACACCCCAGGCCCTTCAGGAACTGGGGCCTTGCCTTGCAGCCACATGGCCCCATCCCAGTTGGGGAAGCCAGGTGAGCTCTGACCCTTGGGCCTGGGCCTCTGCCCCTCCCAACCCAGCCCTCGTCTCCCTCGACAGCGCCCCTGCTGTCTTCCCCACCGCAGTCACCACCACCCGAAATGCCACGTGGTCACTGTGCACTGCCCTGTCCATGTGCCTCTGCGGGGCAGGGCCTTCCTGGTTTTGTTCACTGCTGTACCCAGATGCCTACAACCATCCCTGCCACATACAGGTGCTCAATAAACACTTGTAGAGCAGATGG
modifications: CDS (83)..(709)
B5: 159 (nucleic acid, listed as Homo sapiens)
chain: CCGGCGGGCTGGTGAGGAATGGAGCCGGTAGGCTGCTGCGGCGAGTGCCGCGGCTCCTCCGTAGACCCGCGGAGCACCTTCGTGTTGAGTAACCTGGCGGAGGTGGTGGAGCGTGTGCTCACCTTCCTGCCCGCCAAGGCGTTGCTGCGGGTGGCCTGCGTGTGCCGCTTATGGAGGGAGTGTGTGCGCAGAGTATTGCGGACCCATCGGAGCGTAACCTGGATCTCCGCAGGCCTGGCGGAGGCCGGCCACCTGGAGGGGCATTGCTTGGTTCGCGTGGTAGCAGAGGAGCTTGAGAATGTTCGCATCTTACCACATACAGTTCTTTACATGGCTGATTCAGAAACTTTCATTAGTCTGGAAGAGTGTCGTGGCCATAAGAGAGCAAGGAAAAGAACTAGTATGGAAACAGCACTTGCCCTTGAGAAGCTATTCCCCAAACAATGCCAAGTCCTTGGGATTGTGACCCCAGGAATTGTAGTGACTCCAATGGGATCAGGTAGCAATCGACCTCAGGAAATAGAAATTGGAGAATCTGGTTTTGCTTTATTATTCCCTCAAATTGAAGGAATAAAAATACAACCCTTTCATTTTATTAAGGATCCAAAGAATTTAACATTAGAAAGACATCAACTCACTGAAGTAGGTCTTTTAGATAACCCTGAACTTCGTGTGGTCCTTGTCTTTGGTTATAATTGCTGTAAGGTGGGAGCCAGTAATTATCTGCAGCAAGTAGTCAGCACTTTCAGTGATATGAATATCATCTTGGCTGGAGGCCAGGTGGACAACCTGTCATCACTGACTTCTGAAAAGAACCCTCTGGATATTGATGCCTCGGGTGTGGTTGGACTGTCATTTAGTGGACACCGAATCCAGAGTGCCACTGTGCTCCTCAACGAGGACGTCAGTGATGAGAAGACTGCTGAGGCTGCGATGCAGCGCCTCAAAGCGGCCAACATTCCAGAGCATAACACCATTGGCTTCATGTTTGCATGCGTTGGCAGGGGCTTTCAGTATTACAGAGCCAAGGGGAATGTTGAGGCTGATGCATTTAGAAAGTTTTTTCCTAGTGTTCCCTTATTCGGCTTCTTTGGAAATGGAGAAATTGGATGTGATCGGATAGTCACTGGGAACTTTATATTGAGGAAATGTAATGAGGTAAAAGATGATGATCTGTTTCATAGCTATACAACAATAATGGCACTCATACATCTGGGGTCATCTAAATAATAATTAAAGTGGCTTTCATAATATGT
modifications: CDS (19)..(1227)

Each molecule was assayed on STAT6 (assay: Screening of full-length cDNA clones for promotion of STAT6 activation (luciferase reporter N4×8-luc)). Details: NIH3T3 cells cotransfected with N4×8-luc reporter and cDNA plasmid; 48 h culture, then mouse IL-4 0.5 ng/ml for 6 h.
Type: cell-based
In short: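 NIH3T3 cells cotransfected with STAT6-responsive N4×8-luc reporter (100 ng) and full-length cDNA, cultured 48 h, then given mouse IL-4 at 0.5 ng/ml final for 6 h. Luciferase activity compared with reporter plus null-vector control.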

Compared with B1, B2 is lower in “Activity = (luciferase activity of the gene of each SEQ ID NO:)/(luciferase activity of pME18S-FL3)” value: 32.6 for the first, 3.4 for the second.

Going from B3 to B4, the “Activity = (luciferase activity of the gene of each SEQ ID NO:)/(luciferase activity of pME18S-FL3)” value falls from 13.4 to 4.8.

For B5, the “Activity = (luciferase activity of the gene of each SEQ ID NO:)/(luciferase activity of pME18S-FL3)” value was 19.1.
